The nature of test [1]: ALP-driven mineralization of adhesive/dentin specimen with HABP1, RAMAN imaging with Divisive Clustering Analysis. In kind it is biochemical, human. Particulars: for MNRp 960/1460: RAMAN peak ratio; for FMHW PO4^−3): RAMAN, after ALP-driven mineralization; for GMC 1078/960: carbonate to phosphate peak ratio; for Ca-P/collagen 960/1667: phosphate to amide I peak ratio. Here is the method: (§1) ALP-driven mineralization was executed following the protocol discussed in Gungormus et al. (2008). The mineralization buffer prepared was composed of 24.4 Ca^2+ mM and 14.4 mM B-glycerophosphate made in 25 mM Tris-HCl buffer at pH 7.4, and 200 μL/well was added to a 24-well plate. Collagen-peptide samples were placed gently within the well to lay flat at the bottom. The mineralization reaction was initiated by adding FastAP (thermosensitive alkaline phosphatase), 1.4×10^−6 g/mL, and left to incubate at 37° C. for 20 min. The samples were then removed from the wells, gently rinsed in sterile-filtered water, and left to air dry overnight. Throughout this process the samples were handled in a horizontally flat manner to prevent disturbing the peptide-functionalized collagen layer on the surface of the substrate.
Demineralized dentin samples, adhesive/dentin samples (pre/post mineralization), and SC collagen on glass were imaged using a LabRAM ARAMIS Raman microscope (HORIBA Jobin Yvon, Edison, NJ, USA), equipped with a HeNe laser (2=[…], laser power=17 mW). Light micrograph images were taken using a 50× long working distance objective Olympus lens. The samples spectra were evaluated over a wavelength range of 300 cm^−1 to 1800 cm^−1 with a 15 s spectra acquisition time of 4 acquisitions per cycle and processed using LabSPEC 6 software (HORIBA Jobin Yvon, Edison, NJ, USA). Divisive Clustering Analysis (DCA) was used to classify and group respective spectra. This multivariate analysis method was integrated into the LabSPEC 6 analysis software as a Multivariate Analysis (MVA) module (powered by Eigenvector Research Inc., HORIBA Jobin Yvon, NJ, USA). A rectangular area of the surface was imaged and submitted to this multivariate analysis where a statistical pattern determined derived independent clusters to present chemically distinct regions. Average spectra are calculated per cluster which were used to provide information on particular peak parameters and component distribution in the resulting spectra. These components were analyzed for relative degree of mineralization via mineral-to-matrix ratio (MMR), inferred from the ratio of peak intensities at 960 cm^−1 (phosphate) and 1460 cm^−1 (CH2 bending), crystallinity via full width at half maximum (FWHM) from the v1 phosphate band (960 cm^−1), and the carbonate content of mineral crystallites via gradient in mineral content (GMC), based on ratio of relative carbonate (10^70 cm^−1) and phosphate (960 cm^−1) peak heights. The calcium-phosphate (Ca/P) to collagen ratio was also assessed to understand the relative thickness of the mineral formed during mineralization. This would help in comparative evaluations between the samples.
Next evaluated was the use of HABP1 to potentially direct mineralization within the adhesive/demineralized dentin hybrid layer. To do this RAMAN Divisive Clustering Analysis (DCA) was used, a hierarchical k-means clustering method which is useful for identifying the internal structure of multi-layer datasets. We mapped the most distinctive mineral composition variations associated with the collagen matrix structural variations according to their RAMAN spectra. […] The DCA method measures similarity in three parameters: ratio of 960/1460 peak (e.g., mineral-to-matrix ratio), ratio of 1078/960 (gradient mineral carbonation, GMC: carbonate to phosphate) peak, and ratio of the 960/1667 peaks (phosphate to collagen with retained amide I structure, Ca/P collagen). The spectral feature at 1460 cm^−1 is assigned to the CH2 wag for collagen, and 1667 cm^−1 is the amide I peak for the collagen used. The 960 cm^−1 peak is the v1 phosphate stretching vibration associated with the mineral and 10^78 cm^−1 is the band for v1 carbonate. The method clusters the following groups: collagen only, mineral group I, and mineral group II. […]

Test [2] concerns the target T1, Type 1 rat tail collagen (Rattus norvegicus, UniProt P02454+P02466).
T1 construct: Collagen Type 1 solution from rat tail (3 mg/mL, C3867, 95%) was purchased from Sigma-Aldrich; purchased Sigma-Aldrich C3867; host or cells: rat tail (tissue-derived)
The test is described as follows: SEM/EDS of Ca-P deposits on peptide-incorporated collagen after ALP-driven mineralization. The following applies: for average Ca—P ratio: EDS, initial mineral on peptide-incorporated collagen after 20 min ALP-driven mineralization; for mineral formation morphology on SEM images: peptide-incorporated collagen after ALP-driven mineralization. In kind it is biochemical. Here is the method:
(§2) Grade V1 round mica, 0.21 mm thick and 12 mm in diameter, was used as the substrate surface and mounted onto a 12 mm atomic force microscopy specimen disc using STKYDOT adhesive. In 1 mL of 3 mg/mL Type 1 rat tail collagen suspension, 50 nanomoles of peptide were added. The ratio of mass collagen to mass peptide ranged from 100 wt collagen: 1 wt peptide for single domains to 100 wt collagen: 3 wt peptide for the chimeric peptide. Once peptide was dissolved and gently mixed in the collagen suspension, 150 μL was drop-cast onto the substrate surface and left to self-assemble at 4° C. for 16 h.
as §1
In order to examine initial intrafibrillar mineral formation and morphology and determine Ca/P ratios precipitated on the peptide-functionalized collagen surface, a Cold Field Emission Scanning […] Microscope (SEM, S-4700 model, Hitachi High-Tech America, Schaumburg, IL, USA) equipped with a silicon drift energy-dispersive detector (EDS, X-max, Oxford Instruments, Concord, MA, USA) was used via the Microscopy and Analytical Imaging Research Resource Core Laboratory (RRID:SCR_021801). Collagen-peptide samples were sputter-coated with 3 nm gold using a Quorum sputter coating system (Q150, Quorum, Laughton, East Sussex, UK). SEM imaging was completed at an acceleration voltage of 10 kV at ultra-high resolution operating mode and EDS measurements were made at 10 kV under normal operating mode to preserve the integrity of the collagen-peptide layer and prevent burning during signal capture. EDS analysis was performed through AZtec software (X-MaxN, Oxford Instruments, Concord, MA, USA).
The composition and morphology of the Ca—P deposits formed on collagen samples were examined using scanning electron microscopy (SEM) with energy dispersive X-ray analysis (EDS). […] The EDS results validated the finding of Ca—P mineral isomorphs on the peptide-incorporated collagen platforms. The calcium/phosphate ratios were calculated to examine compositional differences. […] Whereas collagen+ (CBP) and collagen+ (CBP-HABP1) had comparatively lower average Ca—P ratios at 1.30 and 1.25, respectively. These values are similar to the molar ratio of octacalcium phosphate, which is around 1.33, and amorphous calcium phosphate (ACP), which is roughly 1.50 [54-57].

Test [3] concerns the target T1, Type 1 rat tail collagen. The test is described as follows: Collagen fibril self-assembly with incorporated peptide, AFM topography fibril widths. The following applies: peptide co-assembled with collagen (50 nanomoles in 1 mL of 3 mg/mL), drop-cast on mica. Here is the method:
as §2
(§3) A Bruker Multimode 8 HR scanning probe microscope (Bruker Nano Inc., Camarillo, CA, USA) was operated in peak force tapping mode with the capability of Quantitative Nanomechanics (PeakForce-QNM) in air mode conditions (24±2° C., 40%±5% RH). This advanced testing mode was used to examine the topographical and nanomechanical property changes of the collagen-peptide samples both before and after mineralization. Tapping mode etched silicon probes, type RTESPA 525-30 (Bruker Nano Inc., Camarillo, CA, USA) with a resonant frequency of about 518 kHz, were used to acquire images (1 μm×3 μm and 5 μm×5 μm) at scan rate of 0.5 Hz with 512 pixel/line resolution. The images of the samples were recorded using NanoScope 8.15 software and analyzed using NanoScope Analysis 2.0 software (Bruker Nano Inc., Camarillo, CA, USA).
Building upon the conformational flexibility of the peptide, the CBP-HABP1 peptide was then studied for the assembly properties on the collagen fibrils on mica substrate using AFM topography image analysis. The images were acquired in tapping mode. Non-fibril features, indicated as intensity saturated regions on the surface, are acetic acid salt crystals from the evaporation of the solution in which the collagen was suspended. These features were excluded from image to prevent signal shadowing of the surface fibril assembly. […] Collagen+ (CBP-HABP1) fibrils were measured to be smaller than collagen-alone fibrils, resulting in a statistically significant difference. […]

Test [4] concerns the target T1, Type 1 rat tail collagen. The test is described as follows: PeakForce-QNM AFM modulus mapping of peptide-functionalized collagen pre/post ALP-driven mineralization. Particulars: peptide incorporated into collagen. Here is the method:
as §2, §1, §3
Building on the observed effects of the chimeric peptide on the collagen, next examined was if there was a change on the mechanical properties of the collagen due to the peptide presence. Quantitative modulus mapping was executed via PeakForce-QNM AFM to observe the changes in the elastic modulus distribution on the surfaces. The elastic modulus was previously established to be derived by using the Derjaguin-Muller-Toropov (DMT) model, and is thus reported as the DMT modulus. […]

Test [5] addresses Collagen Type 1 solution from rat tail (3 mg/mL, C3867, Sigma-Aldrich) (rat, UniProt P02454 152-1207; P02466 86-1125). The test is described as follows: cell-based or functional assay.

“And” between values parts separate entries of the source, which are not always exact repeats. Equal values may be shown once. No end group written: not given here.

T1 sequence (P02466 86-1125 limits assumed): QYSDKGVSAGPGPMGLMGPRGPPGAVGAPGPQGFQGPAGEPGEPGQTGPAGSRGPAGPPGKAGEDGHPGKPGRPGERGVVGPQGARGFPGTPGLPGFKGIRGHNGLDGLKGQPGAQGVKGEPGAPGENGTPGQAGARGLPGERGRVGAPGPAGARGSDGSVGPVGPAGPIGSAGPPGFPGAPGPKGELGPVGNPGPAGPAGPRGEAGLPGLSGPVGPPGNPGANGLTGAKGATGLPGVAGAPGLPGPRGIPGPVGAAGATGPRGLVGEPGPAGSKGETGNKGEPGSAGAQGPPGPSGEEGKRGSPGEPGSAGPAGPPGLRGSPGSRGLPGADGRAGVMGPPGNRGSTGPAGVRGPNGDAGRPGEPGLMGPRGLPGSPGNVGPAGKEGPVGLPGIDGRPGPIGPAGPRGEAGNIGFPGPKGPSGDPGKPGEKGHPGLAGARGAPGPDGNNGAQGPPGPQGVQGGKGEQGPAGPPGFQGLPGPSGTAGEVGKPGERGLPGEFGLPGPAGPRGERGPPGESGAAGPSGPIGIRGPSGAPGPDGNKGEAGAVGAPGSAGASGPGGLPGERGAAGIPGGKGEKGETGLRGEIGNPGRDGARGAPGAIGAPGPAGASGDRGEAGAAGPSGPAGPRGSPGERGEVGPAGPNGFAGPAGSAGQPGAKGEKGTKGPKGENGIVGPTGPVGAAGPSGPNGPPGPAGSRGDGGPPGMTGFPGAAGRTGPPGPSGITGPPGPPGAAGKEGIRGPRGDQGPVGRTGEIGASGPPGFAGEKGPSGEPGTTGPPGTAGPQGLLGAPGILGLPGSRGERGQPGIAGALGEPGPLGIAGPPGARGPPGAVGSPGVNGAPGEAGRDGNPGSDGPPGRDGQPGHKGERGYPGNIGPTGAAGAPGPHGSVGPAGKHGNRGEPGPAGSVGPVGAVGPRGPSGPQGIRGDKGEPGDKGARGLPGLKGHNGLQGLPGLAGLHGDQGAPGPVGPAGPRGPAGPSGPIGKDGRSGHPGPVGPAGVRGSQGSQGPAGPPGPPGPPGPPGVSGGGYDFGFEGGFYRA
T1 sequence (P02454 152-1207 limits assumed): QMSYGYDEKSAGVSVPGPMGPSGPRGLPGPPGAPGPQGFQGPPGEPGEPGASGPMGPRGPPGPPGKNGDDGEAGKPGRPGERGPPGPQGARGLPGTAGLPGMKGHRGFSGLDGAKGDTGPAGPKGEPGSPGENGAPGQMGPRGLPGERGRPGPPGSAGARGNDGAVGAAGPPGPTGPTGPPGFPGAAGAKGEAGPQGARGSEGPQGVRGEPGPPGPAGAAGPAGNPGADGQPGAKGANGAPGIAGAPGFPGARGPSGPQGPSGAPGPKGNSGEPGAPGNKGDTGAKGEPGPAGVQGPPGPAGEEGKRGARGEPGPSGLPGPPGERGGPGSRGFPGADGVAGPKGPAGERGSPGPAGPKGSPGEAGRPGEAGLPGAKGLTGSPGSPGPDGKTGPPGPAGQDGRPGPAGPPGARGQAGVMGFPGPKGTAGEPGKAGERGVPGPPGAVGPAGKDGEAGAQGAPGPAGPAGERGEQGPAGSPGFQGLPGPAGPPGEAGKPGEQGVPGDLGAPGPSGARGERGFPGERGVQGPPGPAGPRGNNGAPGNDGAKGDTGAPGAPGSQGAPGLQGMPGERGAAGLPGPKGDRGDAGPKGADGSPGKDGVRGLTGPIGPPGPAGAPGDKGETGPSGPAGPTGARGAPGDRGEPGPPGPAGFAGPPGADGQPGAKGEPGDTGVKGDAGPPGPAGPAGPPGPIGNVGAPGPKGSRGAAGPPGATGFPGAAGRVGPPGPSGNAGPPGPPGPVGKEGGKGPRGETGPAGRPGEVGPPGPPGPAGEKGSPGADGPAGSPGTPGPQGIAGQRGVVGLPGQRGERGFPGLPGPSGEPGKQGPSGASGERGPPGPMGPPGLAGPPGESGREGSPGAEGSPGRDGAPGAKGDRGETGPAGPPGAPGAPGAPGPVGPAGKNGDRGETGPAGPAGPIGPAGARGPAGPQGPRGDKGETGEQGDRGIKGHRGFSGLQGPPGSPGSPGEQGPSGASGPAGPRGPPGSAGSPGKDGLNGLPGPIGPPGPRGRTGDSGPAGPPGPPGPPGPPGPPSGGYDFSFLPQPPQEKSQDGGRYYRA
Collagen Type 1 solution from rat tail (3 mg/mL, C3867, Sigma-Aldrich), sequence (P02454 152-1207 limits assumed, chain 1 of 2): as the sequence (P02454 152-1207 limits assumed) above
Collagen Type 1 solution from rat tail (3 mg/mL, C3867, Sigma-Aldrich), sequence (P02466 86-1125 limits assumed, chain 2 of 2): as the sequence (P02466 86-1125 limits assumed) above

For the molecule MLPHHGA [HABP1], in test [1] (DCA class HABP1 Mineral II), the “MNRp 960/1460” value is reported as 3.59, the “FMHW PO4^−3)” value is on record as 35.6, the “GMC 1078/960” value came out at 0.22 and the “Ca-P/collagen 960/1667” value was found to be 13.2. Further, in test [1] (DCA class HABP1 mineral I), the “MNRp 960/1460” value stood at 2.88, the “FMHW PO4^−3)” value was found to be 39.6, the “GMC 1078/960” value is 0.31 and the “Ca-P/collagen 960/1667” value worked out at 23.9. Moreover, the “mineralization shown with a RAMAN peak consistent with CaPO4 formation (960 cm^−1)” value in test [1] (adhesive/dentin specimen, compared with mineralization procedure without peptide) is reported as “mediates mineralization”. In addition, in the test with Type 1 rat tail collagen [2], the “average Ca—P ratio” value was found to be 1.41 and the “mineral formation morphology on SEM images” value is on record as “more extensively branched columnar mineral growth as well as plate-like mineral growth”. The Mean fibril width in the test with Type 1 rat tail collagen [3] was 129.9 nm and 129.90 nm.

Turning to TKKLTLRT [CBP], the “DMT (elastic) modulus” value with Type 1 rat tail collagen [4] (after 20 min ALP-driven mineralization) was found to be 6.52 GPa. Moreover, the “DMT (elastic) modulus” value in the test with Type 1 rat tail collagen [4] (pre-mineralization) was found to be 5.16 GPa. Besides, in the test with Type 1 rat tail collagen [2], the “average Ca—P ratio” value is given as 1.30 and the “mineral formation morphology on SEM images” value was “branched columnar mineral growth”. The Mean fibril width with Type 1 rat tail collagen [3] is 121.4 nm and 121.40 nm.

B1: collagenase-collagen-binding peptide (CBP), TKKLTLRT (peptide)
peptide: TKKLTLRT-OH
As for B1, in test [5], the “fibril width, Coefficient of variation, AFM topographical imaging” value (from here on “fibril width, Coefficient of variation”) stood at 17 and the “fibril width, Standard Deviation, AFM topographical imaging” value (“fibril width, Standard Deviation” for short) turned out to be 20.7 nm.

B2: bifunctional peptide TKKLTLRT-APA-MLPHHGA (CBP-HABP1) (peptide)
peptide: TKKLTLRTAPAMLPHHGA
With B2, in test [5], the “fibril width, Coefficient of variation” value was 32.1 and the “fibril width, Standard Deviation” value turned out to be 26.5 nm.

B3: hydroxyapatite-binding peptide (HABP1), MLPHHGA (peptide)
peptide: MLPHHGA-OH
Regarding B3, in test [5], the “fibril width, Coefficient of variation” value amounted to 67.5 and the “fibril width, Standard Deviation” value came out at 87.6 nm.

Values taken from patent publication US20260224446A1, “BIFUNCTIONAL PEPTIDES USEFUL FOR COLLAGEN INTRAFIBRILLAR MINERALIZATION” (University of Kansas, priority 2023, published 2026).
